# PMC7619307, “The Golgi vesicle tether p115 can bind directly to the ER exit site organiser Sec16A” (Journal of cell science, 2026)
# B1: full-length p115–GFP (wild type) [human] / Sec13 [human (endogenous in HEK293T)] (parent complex)
# chain 1: MNFLRGVMGGQSAGPQHTEAETIQKLCDRVASSTLLDDRRNAVRALKSLSKKYRLEVGIQAMEHLIHVLQTDRSDSEIIGYALDTLYNIISNEEEEEVEENSTRQSEDLGSQFTEIFIKQQENVTLLLSLLEEFDFHVRWPGVKLLTSLLKQLGPQVQQIILVSPMGVSRLMDLLADSREVIRNDGVLLLQALTRSNGAIQKIVAFENAFERLLDIISEEGNSDGGIVVEDCLILLQNLLKNNNSNQNFFKEGSYIQRMKPWFEVGDENSGWSAQKVTNLHLMLQLVRVLVSPTNPPGATSSCQKAMFQCGLLQQLCTILMATGVPADILTETINTVSEVIRGCQVNQDYFASVNAPSNPPRPAIVVLLMSMVNERQPFVLRCAVLYCFQCFLYKNQKGQGEIVSTLLPSTIDATGNSVSAGQLLCGGLFSTDSLSNWCAAVALAHALQENATQKEQLLRVQLATSIGNPPVSLLQQCTNILSQGSKIQTRVGLLMLLCTWLSNCPIAVTHFLHNSANVPFLTGQIAENLGEEEQLVQGLCALLLGISIYFNDNSLESYMKEKLKQLIEKRIGKENFIEKLGFISKHELYSRASQKPQPNFPSPEYMIFDHEFTKLVKELEGVITKAIYKSSEEDKKEEEVKKTLEQHDNIVTHYKNMIREQDLQLEELRQQVSTLKCQNEQLQTAVTQQVSQIQQHKDQYNLLKIQLGKDNQHQGSYSEGAQMNGIQPEEIGRLREEIEELKRNQELLQSQLTEKDSMIENMKSSQTSGTNEQSSAIVSARDSEQVAELKQELATLKSQLNSQSVEITKLQTEKQELLQKTEAFAKSVEVQGETETIIATKTTDVEGRLSALLQETKELKNEIKALSEERTAIKEQLDSSNSTIAILQTEKDKLELEITDSKKEQDDLLVLLADQDQKILSLKNKLKDLGHPVEEEDELESGDQEDEDDESEDPGKDLDHI
# chain 2: MVSVINTVDTSHEDMIHDAQMDYYGTRLATCSSDRSVKIFDVRNGGQILIADLRGHEGPVWQVAWAHPMYGNILASCSYDRKVIIWREENGTWEKSHEHAGHDSSVNSVCWAPHDYGLILACGSSDGAISLLTYTGEGQWEVKKINNAHTIGCNAVSWAPAVVPGSLIDHPSGQKPNYIKRFASGGCDNLIKLWKEEEDGQWKEEQKLEAHSDWVRDVAWAPSIGLPTSTIASCSQDGRVFIWTCDDASSNTWSPKLLHKFNDVVWHVSWSITANILAVSGGDNKVTLWKESVDGQWVCISDVNKGQGSVSASVTEGQQNEQ
# B2: full-length p115–GFP (wild type) [human] / endogenous Sec16A (HEK293T) [human (endogenous in HEK293T)] (parent complex)
# chain 1: B1 chain 1
# chain 2: MQPPPQTVPSGMAGPPPAGNPRSVFWASSPYRRRANNNAAVAPTTCPLQPVTDPFAFSRQALQSTPLGSSSKSSPPVLQGPAPAGFSQHPGLLVPHTHARDSSQGPCEPLPGPLTQPRAHASPFSGALTPSAPPGPEMNRSAEVGPSSEPEVQTLPYLPHYIPGVDPETSHGGHPHGNMPGLDRPLSRQNPHDGVVTPAASPSLPQPGLQMPGQWGPVQGGPQPSGQHRSPCPEGPVPSGVPCATSVPHFPTPSILHQGPGHEQHSPLVAPPAALPSDGRDEVSHLQSGSHLANNSDPESTFRQNPRIVNHWASPELRQNPGVKNEHRPASALVNPLARGDSPENRTHHPLGAGAGSGCAPLEADSGASGALAMFFQGGETENEENLSSEKAGLSGQADFDDFCSSPGLGRPPAPTHVGAGSLCQALLPGPSNEAAGDVWGDTASTGVPDASGSQYENVENLEFVQNQEVLPSEPLNLDPSSPSDQFRYGPLPGPAVPRHGAVCHTGAPDATLHTVHPDSVSSSYSSRSHGRLSGSARPQELVGTFIQQEVGKPEDEASGSFFKQIDSSPVGGETDETTVSQNYRGSVSQPSTPSPPKPTGIFQTSANSSFEPVKSHLVGVKPFEADRANVVGEVRETCVRQKQCRPAAALPDASPGNLEQPPDNMETLCAPQVCPLPLNSTTEAVHMLPHAGAPPLDTVYPAPEKRPSARTQGPVKCESPATTLWAQSELPDFGGNVLLAPAAPALYVCAKPQPPVVQPPEEAMSGQQSRNPSSAAPVQSRGGIGASENLENPPKMGEEEALQSQASSGYASLLSSPPTESLQNPPVLIAQPDHSYNLAQPINFSVSLSNSHEKNQSWREALVGDRPAVSSWALGGDSGENTSLSGIPTSSVLSLSLPSSVAQSNFPQGSGASEMVSNQPANLLVQPPSQPVPENLVPESQKDRKAGSALPGFANSPAGSTSVVLVPPAHGTLVPDGNKANHSSHQEDTYGALDFTLSRTLENPVNVYNPSHSDSLASQQSVASHPRQSGPGAPNLDRFYQQVTKDAQGQPGLERAQQELVPPQQQASPPQLPKAMFSELSNPESLPAQGQAQNSAQSPASLVLVDAGQQLPPRPPQSSSVSLVSSGSGQAAVPSEQPWPQPVPALAPGPPPQDLAAYYYYRPLYDAYQPQYSLPYPPEPGAASLYYQDVYSLYEPRYRPYDGAASAYAQNYRYPEPERPSSRASHSSERPPPRQGYPEGYYSSKSGWSSQSDYYASYYSSQYDYGDPGHWDRYHYSARVRDPRTYDRRYWCDAEYDAYRREHSAFGDRPEKRDNNWRYDPRFTGSFDDDPDPHRDPYGEEVDRRSVHSEHSARSLHSAHSLASRRSSLSSHSHQSQIYRSHNVAAGSYEAPLPPGSFHGDFAYGTYRSNFSSGPGFPEYGYPADTVWPAMEQVSSRPTSPEKFSVPHVCARFGPGGQLIKVIPNLPSEGQPALVEVHSMEALLQHTSEQEEMRAFPGPLAKDDTHKVDVINFAQNKAMKCLQNENLIDKESASLLWNFIVLLCRQNGTVVGTDIAELLLRDHRTVWLPGKSPNEANLIDFTNEAVEQVEEEESGEAQLSFLTGGPAAAASSLERETERFRELLLYGRKKDALESAMKNGLWGHALLLASKMDSRTHARVMTRFANSLPINDPLQTVYQLMSGRMPAASTCCGDEKWGDWRPHLAMVLSNLNNNMDVESRTMATMGDTLASRGLLDAAHFCYLMAQAGFGVYTKKTTKLVLIGSNHSLPFLKFATNEAIQRTEAYEYAQSLGAETCPLPSFQVFKFIYSCRLAEMGLATQAFHYCEAIAKSILTQPHLYSPVLISQLVQMASQLRLFDPQLKEKPEEESLAAPTWLVHLQQVERQIKEGAGVWHQDGALPQQCPGTPSSEMEQLDRPGLSQPGALGIANPLLAVPAPSPEHSSPSVRLLPSAPQTLPDGPLASPARVPMFPVPLPPGPLEPGPGCVTPGPALGFLEPSGPGLPPGVPPLQERRHLLQEARSPDPGIVPQEAPVGNSLSELSEENFDGKFANLTPSRTVPDSEAPPGWDRADSGPTQPPLSLSPAPETKRPGQAAKKETKEPKKGESWFFRWLPGKKKTEAYLPDDKNKSIVWDEKKNQWVNLNEPEEEKKAPPPPPTSMPKTVQAAPPALPGPPGAPVNMYSRRAAGTRARYVDVLNPSGTQRSEPALAPADFVAPLAPLPIPSNLFVPTPDAEEPQLPDGTGREGPAAARGLANPEPAPEPKVLSSAASLPGSELPSSRPEGSQGGELSRCSSMSSLSREVSQHFNQAPGDLPAAGGPPSGAMPFYNPAQLAQACATSGSSRLGRIGQRKHLVLN
# Variants of: B1
# Experiment: co-precipitation with p115–GFP, volcano plot of protein enrichment; HEK293T cells; means of biological triplicates; read off a plot
row,screen value,Variant
1,~5.8,chain 1 Q462D

# Variants of: B2
# Experiment: as above
row,screen value,Variant
1,~6.1,chain 1 Q462D
